In patent publication US20140120109A1 (Regeneron, published 2014):

T1: full length human TL1A expressed on HEK293 cells (human, UniProt O95150 1-251)
T1 sequence: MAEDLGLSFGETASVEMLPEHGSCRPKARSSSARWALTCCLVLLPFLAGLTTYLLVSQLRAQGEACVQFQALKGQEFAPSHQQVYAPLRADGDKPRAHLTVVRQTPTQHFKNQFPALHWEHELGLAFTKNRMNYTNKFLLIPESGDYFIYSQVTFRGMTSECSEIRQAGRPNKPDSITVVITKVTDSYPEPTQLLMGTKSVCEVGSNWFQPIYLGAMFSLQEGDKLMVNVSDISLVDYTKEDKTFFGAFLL

T2: full-length cynomolgus monkey TL1A expressed on HEK293 cells (cynomolgus monkey (Macaca fascicularis), UniProt O95150 1-251 (human entry))
T2 chain: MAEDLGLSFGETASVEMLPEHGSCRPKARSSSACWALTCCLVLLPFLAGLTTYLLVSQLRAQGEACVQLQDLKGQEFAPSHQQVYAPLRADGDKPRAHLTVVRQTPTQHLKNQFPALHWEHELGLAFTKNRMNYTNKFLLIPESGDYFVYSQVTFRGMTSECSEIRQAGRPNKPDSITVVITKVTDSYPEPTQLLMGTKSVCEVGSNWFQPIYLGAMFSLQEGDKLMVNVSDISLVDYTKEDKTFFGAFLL

T3: cynomolgus monkey TL1A, soluble, CHO-expressed, residues 72-251 of SEQ ID NO:248 with N-terminal His6-tag (cynomolgus monkey (Macaca fascicularis), UniProt O95150 72-251 (human entry))
T3 construct: also called MfTL1A; MfTL1A (CHO)
T3 chain: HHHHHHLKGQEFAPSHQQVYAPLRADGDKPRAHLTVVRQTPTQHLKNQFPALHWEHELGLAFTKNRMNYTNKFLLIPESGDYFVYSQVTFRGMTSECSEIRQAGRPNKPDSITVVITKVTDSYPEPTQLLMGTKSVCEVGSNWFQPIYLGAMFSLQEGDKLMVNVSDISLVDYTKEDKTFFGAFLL

T4: human TL1A, soluble, CHO-expressed, residues 72-251 of SEQ ID NO:244 with N-terminal His6-tag (human, UniProt O95150 72-251)
T4 sequence: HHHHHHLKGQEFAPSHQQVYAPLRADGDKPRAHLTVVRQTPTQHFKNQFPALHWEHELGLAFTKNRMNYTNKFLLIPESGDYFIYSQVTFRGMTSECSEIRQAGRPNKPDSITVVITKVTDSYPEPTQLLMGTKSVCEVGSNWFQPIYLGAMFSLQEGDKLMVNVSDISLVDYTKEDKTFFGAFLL

T5: human TL1A, soluble, E. coli-expressed, residues 72-251 of SEQ ID NO:244 (human, UniProt O95150 72-251)
T5 sequence: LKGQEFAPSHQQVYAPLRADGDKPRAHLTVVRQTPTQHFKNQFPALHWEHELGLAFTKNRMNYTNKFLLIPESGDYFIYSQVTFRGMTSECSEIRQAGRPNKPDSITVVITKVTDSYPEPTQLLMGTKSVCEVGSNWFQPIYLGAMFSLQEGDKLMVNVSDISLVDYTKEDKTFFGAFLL

T6: cynomolgus monkey TL1A, soluble, E. coli-expressed, residues 72-251 of SEQ ID NO:248 (cynomolgus monkey (Macaca fascicularis), UniProt O95150 72-251 (human entry))
T6 chain: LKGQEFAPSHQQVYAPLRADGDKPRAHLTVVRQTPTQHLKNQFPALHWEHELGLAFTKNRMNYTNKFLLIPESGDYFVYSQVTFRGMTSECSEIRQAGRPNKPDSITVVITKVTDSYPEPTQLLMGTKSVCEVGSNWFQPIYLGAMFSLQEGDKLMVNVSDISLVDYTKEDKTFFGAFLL


Key:
[1] = target: T1, full length human TL1A expressed on …; experiment: cell-based or functional assay
[2] = target: T2, full-length cynomolgus monkey TL1A …; experiment: cell-based or functional assay
[3] = target: T3, cynomolgus monkey TL1A, soluble, …; experiment: ELISA, blocks MfTL1A (500 pM) binding hDR3-Fc
Procedure, shortened: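 Competition sandwich ELISA: biotinylated CHO-expressed ligand (human TL1A, FHM Q167R variant, or cynomolgus TL1A) at fixed concentration preincubated with titrated antibody 1 h at 25 °C, then 1 h on hDR3-Fc or hDcR3-Fc coated wells. Bound ligand detected by streptavidin-HRP/TMB at 450 nm; sigmoidal dose-response fit.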

[4] = target: T4, human TL1A, soluble, CHO-expressed, …; experiment: cell-based or functional assay
[5] = target: T4, human TL1A, soluble, CHO-expressed, …; experiment: cell-based or functional assay; remark: listed apart in the source
[6] = target: T3, cynomolgus monkey TL1A, soluble, …; experiment: cell-based or functional assay
[7] = target: T5, human TL1A, soluble, E. coli-expressed, …; experiment: cell-based or functional assay
[8] = target: T6, cynomolgus monkey TL1A, soluble, E. …; experiment: cell-based or functional assay

Binder	IC50, reporter + 10,000 TL1A cells [1] [nM]	IC50, reporter + 10,000 TL1A cells [2] [nM]	IC50 [3] [nM]	IC50, IFN-g release, average of donors [4] [nM]	IC50, IFN-g release, donor D1 [4] [nM]	IC50, IFN-g release, donor D2 [4] [nM]	IC50, IFN-g release, donor D3 [4] [nM]	IC50, IFN-g release, donor D4 [4] [nM]	IC50, IFN-g release, donor D5 [4] [nM]	IC50, IFN-g release, donor D6 [4] [nM]	IC50, IFN-g release, donor D7 [4] [nM]	IC50, IFN-g release, donor D8 [4] [nM]	IC50, IFN-g release, donor D9 [4] [nM]	IC50, IFN-g release, donor D10 [4] [nM]	IC50, IFN-g release, donor D11 [4] [nM]	IC50, IFN-g release, donor D12 [4] [nM]	IC50, NFkB-luciferase reporter [5] [nM]	IC50, NFkB-luciferase reporter [6] [nM]	IC50, NFkB-luciferase reporter [7] [nM]	IC50, NFkB-luciferase reporter [8] [nM]
H4H1804N (antibody, human IgG4 S228P, V domains shown, human IgG4(S108P) form of H2M1804N) VH: QVQLHQWGAGLLKPSETLSLTCAVSGVSFSDYHWAWIRQSPGKGLEWIGDINHRGRTNYNPSLKSRVTISLDTSGNPFSLKLTSVTAADTAVYYCARDFPNWVFDSWGQGILVTVSS VL: EIVLSQSPGTLSLSPGERATLSCRASQSVSSSFLAWYQQYPGQAPRLLIYGASRRATGIPDRFRGSGSGTDFTLTISRLEPEDFAVYYCQQYGSSPLTFGGGTKVENK	0.56	2.23	0.071	8.8	6.8	8.6	8.6	7.7	6.7	8.6	12	11	8.1	12	7.6	7.5	0.07	0.03	0.03	0.02
H4H1805N (antibody, human IgG4 S228P, V domains shown, human IgG4(S108P) form of H2M1805N) VH: QVQLQQWGAGLLKPSETLSLTCAVYGGSFTGFYWSWIRQPPGKGLEWIGEINHRGNTNYNPSLKSRVTMSVDTSKNQFSLNMISVTAADTAMYFCASPFYDFWSGSDYWGQGTLVTVSS VL: DIMLTQTPLTSPVTLGQPASISCKSSQSLVHSDGNTYLSWLQQRPGQPPRLLFYKISNRFSGVPDRFSGSGAGTDFTLKISRVEAEDVGVYYCMQATQFPLTFGGGTKVEIK	0.82	1.93	0.026	4	2.4	5.5	3.4	2.5	2.9	3.4	8	5.1	5.9	2.8	3	3.1	0.1	0.03	0.04	0.02
H4H1745P (antibody, human IgG4 S228P, V domains shown) VH: EVQLVESGGGLVQPGGSLRLSCAASGFTFSSYAMTWVRQAPGKGLEWVSGVSGRGGSTYYADSVKGRFTISRDNSKNTLYLQMNSLRAEDTAVYYCAYWDISSFDYWGQGTLVTVSS VL: DIQLTQSPSFLSASVGDRVTITCWASQGISTYLAWYQQKPGKTPKLLIYAASTLQSGVPSRFSGSGSGTDFTLTISSLQPEDFATYYCQQFNSYPLTFGGGTKVEIK	0.76	4.28	0.05														0.09	0.05	0.06	0.03
H4H1817N (antibody, human IgG4 S228P, V domains shown, human IgG4(S108P) form of H2M1817N) VH: QVQLQQWGAGLLKPSETLSLTCAVSGGSFSDYFWTWIRQPPGKGLEWIGEISHSGRTNYNPSLKSRVTISVDTSMSQFSLKMTSVTAADSAVYYCARDYPNWVFDYWGQGTLVTVSS VL: EIELTQSPGTLSLSPGEGATLSCRASQSVFNSYLAWYQQKPGQAPRLLIYGASRRATGIPDRFSGSGSGTDFTLTISRLEPGDFAVYFCQQYGNSPLTFGGGTKVEIK	1.11	5.04	0.101	6.5	6.6	3.1	4.7	2.4	8.5	4.7	7	7	9.5	7.3	7.3	9.4	0.11	0.04	0.04	0.02
H4H1704N (antibody, human IgG4 S228P, V domains shown, human IgG4(S108P) form of H2M1704N) VH: EVQLVESGGGLVQPGGSLRLSCAVSGFTFSSYWMSWVRQAPGKGLEWVANIKEDGSEKNYVDSVKGRFTLSSDNAKNSLYLQMNSLRAEDTAVYYCAREDYDSYYKYGMDVWGQGTAVIVSS VL: not shown	1.11	3.76	0.042	12					17	11	12	19	7.5	10	11	8	0.13	0.01	0.06	0.03
H4H1738P (antibody, human IgG4 S228P, V domains shown) VH: EVQLVESGGALVKPGGSLRLSCAVSGFTFINDWMNWVRQAPGKGLEWVGRIKSTTDGGTTDDAAPVKGRFTISRDDSKNTLYLQMNSLKTEDTAVYYCTRDRNRQRNYFYDGMDVWGQGTTVTVSA VL: DIVMTQSPVSLPVTPGEPASISCRSSQRLLHNNGNNYLDWYLQKPGQSPQLLIYLGSNRASGVPDRFSGSGSGTDFTLKVSRVEAEDVGVYYCMQALQTPYTFGQGTKLEIK	7.47	20.2	0.117														0.39	0.39	0.16	0.07
